Laboratory results reported in paper PMC11334715 (Science immunology, 2024).
Where two headings read alike, the source gives them in different places.

How the values were obtained:
[1] = target: T1, murine LRIG1.ECD.His recombinant protein (mouse, UniProt P70193 35-796); experiment: SPR
T1 sequence (looked up): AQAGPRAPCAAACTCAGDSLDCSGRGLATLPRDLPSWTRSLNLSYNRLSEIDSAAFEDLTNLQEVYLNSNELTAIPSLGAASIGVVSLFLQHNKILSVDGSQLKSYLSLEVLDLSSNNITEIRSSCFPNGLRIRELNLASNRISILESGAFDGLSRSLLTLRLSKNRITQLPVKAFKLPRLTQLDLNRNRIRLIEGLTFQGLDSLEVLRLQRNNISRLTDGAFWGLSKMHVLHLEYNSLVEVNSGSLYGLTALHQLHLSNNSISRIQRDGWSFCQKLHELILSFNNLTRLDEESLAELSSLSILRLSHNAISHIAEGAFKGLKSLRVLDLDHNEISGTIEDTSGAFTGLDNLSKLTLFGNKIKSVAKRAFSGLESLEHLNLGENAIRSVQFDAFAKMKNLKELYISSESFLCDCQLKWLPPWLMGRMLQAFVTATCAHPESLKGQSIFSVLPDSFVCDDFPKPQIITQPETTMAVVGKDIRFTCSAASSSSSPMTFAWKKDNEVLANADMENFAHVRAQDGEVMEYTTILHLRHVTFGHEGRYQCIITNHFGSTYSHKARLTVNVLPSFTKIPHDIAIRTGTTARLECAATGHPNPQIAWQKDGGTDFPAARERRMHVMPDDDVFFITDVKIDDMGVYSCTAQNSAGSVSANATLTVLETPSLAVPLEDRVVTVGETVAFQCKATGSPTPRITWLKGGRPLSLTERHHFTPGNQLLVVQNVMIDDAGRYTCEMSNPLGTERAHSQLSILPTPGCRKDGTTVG

[2] = target: T1, murine LRIG1.ECD.His recombinant protein; experiment: SPR; remark: listed apart in the source

Kd [1]: 3.44 nM
Kd [2]: 1.2 nM
B1: murine VISTA.Fc recombinant protein (VISTA.ECD) (Fc fusion, UniProt Q9D659 33-191, looked up)
chain: FKVTTPYSLYVCPEGQNATLTCRILGPVSKGHDVTIYKTWYLSSRGEVQMCKEHRPIRNFTLQHLQHHGSHLKANASHDQPQKHGLELASDHHGNFSITLRNVTPRDSGLYCCLVIELKNHHPEQRFYGSMELQVQAGKGSGSTCMASNEQDSDSITAA
